According to the DeepSol protein solubility set:

Experiment: soluble on expression in E. coli; label from the status in PepcDB or PDB records

Soluble on expression in E. coli, not soluble:
MGSDKIHHHHHHMLSNLWKRQAPQMVGIDIGSHEIKAILLSKTADGYKILSHAAVPVKKGAVNDHEIRDSDAVLESLRLIKRSLPKSVKYAAAAVSGSAVMTKVIYMDASLSEEEMETQIEIEADNLIPYSLDEVSIDFETLSVNSADPSKVDVLLSACRTENIDARVDSLDDINLEAKVIDVEGYALGRSFELVAAQLPDGAEDKVVALVDIGANMTTFAVVEKGETTFIREQAFGGEQFTQSILSFYGMSHEQAEKAKLEGDLPRNYMFEVLSPFQTQLLQQIKRTLQIYCTSSGKDKVDHIVLCGGTSKLEGMANLLTNELGVHTIIADPFLGCLHADEQVKTQLQPTINKYMVACGLALRSYSQWRT
MGSDKIHHHHHHMLSNLWKRQAPQMVGIDIGSHEVKAILLGKTADGYKILSHAAVPVKKGAINDHDIRDADAVVECLRQIKRILPKSVKYAAVAVSGSAVMTKVIYMDASLSEEEMEAQIEIEADNLIPYSLDEVSIDFETLNVNSTDPSKVDVLLSACRTDNIDTRVDALDEVELETKVVDVEGYALGRAVELVLGQLPEGARQKAVAMVDIGANMTTFCVVESGETTFIREQAFGGELFTQSILSFYGMSYEQAEKAKIEGDLPRNYMFEVLSPFQTQLLQQIKRTLQIYCTSSGKDKVDYLVLCGGTSKLEGMANLLTNELGVHTIIADPFQGCLHADESVKNILQPSISKYMVACGLALRSYGQWRT
MGSDKIHHHHHHMLSVNRIVISAAGGGKTTRVVDQALACEQGQGATALITYTRNNVREIQLKAYERTRTIPSHVEVISWYSFLLRELARPYRSAMHASRVDGIHWVEGKSVPYIPEARTSGHYFFDGSRIYSDKIAKFVCECDRRSGGAIMRRLKQRFRHIIIDEIQDMAGYDLDLLELILKAGVPVTFVGDHRQATFATNNASKNKVFSGPAIIKKFELWKKQGLVEIEYETHTHRCNQTIADLGDGFFPNEPKTVSRNDKVTGHDGVFLVSSADVGEYMKRFAPQVLRYSAATNCDLDEAMNFGESKGLTFERVLIYPHGPARKWLASGDIRHVEKSLTKMYVAVTRARYSVAFVHDGKICSVAATKWVPG
MGSDKIHHHHHHMLTGHHAPVRAYDAHASSNSSTGFRGRLRLSVATTERQCSMIIAHLSDLHIRETGKPFASGNVDCTARAAQAFERVANMTPRPDMMVVTGDLADSGQIGEYQLLKELTEGLPFPVHLALGNHDIRENFLAVFPEKKGPGGFVQFCVEHDKLRVIGLDTLVEGEGLGRLCSERLSYLRDCLQERPNTSTLILLHHPPFAFGGGIYDAVRLIDGARELGEIITANKQVVRLLCGHHHRAIDCLWNGTLASVAPSVVSSCHLQLGDVRVFKNINEPPAFKLHVLVPESGFVSHNVFVEDFGPAYENIPDPNYQALASMRKQTALAASR
MGSDKIHHHHHHMLTRTHEAIPEIMYRIGDLADETGLPCYIVGGYVRDLIMQRPCTDIDIMVIGEPVPFAHALAEKLGGRNFVLFERFRTAQLELDDPKAGTFKLEIVGARKESYNPESRKPITSIGTLEDDLSRRDFTINALALRLNRKERGEVVDLFDGQRHIREKLLKTPLDPEQTFSDDPLRMMRAARFACQLDFQLDEATLTAMSTMSSRIQIVSRERVSHEFFKIMEARKPSIGLKILYSTGLLKEIIPELTVMAGIEQVDGLGHKDTLFHTFQVVDNLAEHSDKLWLRVSALFHDIAKPVTKRFHPGSGWTFHGHEAVGVKIVARIFRAMKWPLEPMEYVQKMVRLHHRPIPLSKEEITDSAVRRLMFDAGPDLDDLMTLCRADVTSKNPRKVQRIMKNFSNVEAKIAEVGEKDLLAKWRPPVSGTDIMELLNLPQGRTVGIIKSRMENAIIDGDIPYDRQAALDYIQQVYREMQEKGEA
MGSDKIHHHHHHMLTSGLYQSKNQCCGCELCSCVCPKNLIRMQPDDEGFLYPYIETDEGCVHCNKCIKICPMKSSNRNDIVLKASFGGQTRDIDGTRYSSSGGYATAISKQFILEKGVVVGVRYSSDFSKSEYAIAETIEELEQFRTSKYIQAEKGGIYQTIRNIKRKKILFIGLPCEVSALYNYWGRNTDNLYSISLVCHGPTTPKVQNLFASKLKENNNSQIKYFSVRYKESGWKPYYIYADFENGKHHQELFKGSSYEIAFQYLKRPSCSSCRYKLGDQEFGLVSDLTLGDFHAVEKNMLQYSPWGGVSQASVQSEKGEYLIDLARRQCNVEFIPEKYITKYNYAFHHPVAQKTGRESFKRILLREGLDCAAKSLLVQIPTCYINAKRRIISFLYNVKSYLISK
MGSDKIHHHHHHMLVQGFEEDLAFLGWIALTLGSNPLVPYVPTRPELIPKILELLDLKEDDVFYDLGCGDGRVVIEAVKKTRVKKAVCVETRDDLVKEARKKAEEEGVSDRIEFINNDFFKTPLKDATAVYMYLLTSVNESLKPKLARELRDGTRIVTLDFPIPGWKPVKVETATTGWQRSLYLYVKGVSDRA
MGSDKIHHHHHHMLVVIPQVLNAEQVGAVRERLEHAGEAWVDGRVTAGYSGAPVKFNQQIDERSDVALECQRLILGMLERNPRFISAALPNIVYPPMFNRYSEGMTFGAHVDGSVRIHPHDGRKLRTDISATLFLSPHDSYDGGELQVQDTYGMHSVKLDAGDMVVYPATSLHQVTPITRGTRVASFFWIQSLIRDDTQRSLLFDMDNAIQRLNQTGADEEARRTLVGCYHNLLRQWSET
MGSDKIHHHHHHMLYVTGITGHSGQWFVKRLISEGYKGRIRCIVLPESDTDFLNKSGLDIDIVSGNLNDQEFLTSTMVGCSTVLHIASIDFSRNVVKAALDNNLDWAILVHTTGRYSKYKSASAEYIEIEEYVLKFRNRMGITVLRPTMIYGSSRDRNMYKLITFLHKIKFFPMFGEGENLMQPVHARDLGNAYYDVIVNRSTTFNKGYNLPGKRPLTYMELVRTVSDTLGRKNVIIKIPLWFSILAARVYNALDKNAIISVEQVLRMQEDKAFDYEDAVRDFSYSPVSFEDGIVEEVNEYLARYNSSRTKQR
MGSDKIHHHHHHMMAMITDPDDFFTKGCGRCARFDTPDCSTRPWIDGLNALRRICFSMGLEETAKWAHPCYMHAGRNIALLGAFRSDFLISFLNAGLLVDKAGVLKTPGPNSQTPSVIRFTTVAEVEALEPTIRAYLRQLMDHAVAGTQPPKMAREIDLPDELVDALDADPVLAEAYHALTPGRQRSYLFALSQAKQSATRVARIEKFRDKIIAGKGALER
MGSDKIHHHHHHMMCFSCRVTSDAKVVFLDVIPTPQDIISDFSYICLLLTIKFEYMENISRRTAIKTFLAGGVALATTGIEAAAAAKKKTDVKEPLKGNVRHSVSKWCFGDYKLDEFCEICKHIGIESVELLDPVDWPIVQKHGLTVAMAQGAGLGIDRGFNDPALHDELVASYEKVIPMVADAGLTNLICFSGRRNGVTDLQGWENCEKGLKRLIPLAEKHKVVLTMELLNSVGHKDYLCDHTVWGAELCRRIGSPNFKLLYDIYHMQIMEGNIIENIRKYHPYFSHVHTGGSPGRAEIDETQELYYPAIIKALMETGYKGFVGQEFVPAQEDKIASLEKCIRICDV
MGSDKIHHHHHHMMDKEIENGSVNVDLLELEKFNQLAHRWWDPNSEFKPLHEINPLRLGYIDRHARLAGKDVLDVGCGGGILSESMAESGAQVTGIDLGDKALKVAKLHLLESGNKVNYRKSSVEALAAEQPHHYDVVTCMEMLEHVPDPVSTVRACAELAKPGGWVFFSTINRNPKSYLFAVIGAEYVLNLLPRGTHDYAKFIKPSELGRMAREAGLDVQEVIGMSYNPITKVYSLGQDTDVNYIMAFRA
MGSDKIHHHHHHMMDMLIAHISDTHITNEVAFKSYAYDLIVNEINTKPFDLVVHTGDVTNNGLREEYEHASYLIKKIEKPLVVVPGNHDARNVGYELFEKYIGPLYGVYEFDNGVIIWLDSTIPDLSDGRVGGYKFKWLKEKLEAYSHKKIKIVAAHHHLVPLPDTGRERNVLFNAGDVLDLLLTHEVTLYMCGHKHVPNVYRVEDLVVDNAGCASCRKTRKGDVNSYNIVKITDKGVKVVIRRLTGDEESKEHNPIRPKIFIPRGRRLLRIVQISESNVSDRVYFRKRTLENAIKAINEKYKPDIVIHCGDVVEKGIERYYEKAMEYYEKVKGEKIIVPGHNDISYLGYELFREYFGEPEVLELGDFVFIPILSAQYETQIGVVGRTGQKMLSRMLEEFREKFRIVIMHHNLVPVPGVKEIGYLEDAGNVLKIITENETELTLTGHGGNTSAVKVEKSPIINAGSISWELHRNPFGNSFNIIDIYEDMVVAFEIQATWGSRKVLGMWKIKSEIPWL
MGSDKIHHHHHHMMFQEQIDLLQQKGLYRSLKSVGYIDRQYIEVENKRCTNYTSNDYLGLGQIAFDKDDFERFMRKYSYHLSSSRLISGSSTAYEEIETMLAGWLGYSACTILNSGYDANLALFNIFKNTNCVVFSDQENHASIIDGIKLSGLEKVIYKHLDIADLEKRLEKYPNQNIPKIIISDSVFSTNGDVVDIGQLVSLKHKYNATLILDVSHSFGIENYSNYQGVDILTSSLSKACGAYGGVILSSNDVKDMLINHGRPLIYSSSLPIYNLYFIKRNIEKLINADDRRTKLNSLSKYFNQKLKALNVNYNSSNSPIKFIEFDDIEAAENIHQTLLKHHVFTSYLRYPTVTKPMLRISLSYFHTEQDIDRLFEILHQED
MGSDKIHHHHHHMMIKVFPKLRKQIWGSYRLGEMFGSNEKIGEVWLLSGHPLFITEAEGGLDLNEDMEKLIGKKLPRFPLLVKLISAEDWLSVQVHPNDDEAQELENEPWGKTEAWYFVEKGQIAIGEDPEKVKRALEDNSWDEALKKVEIEPGTFVFLPAGTVHALGPGGLLVEVQQASDLTYRVYDWGRGRELHIEKAFKVMKERKVEDLIVENFENFECEYFRIEKLERGKLEGFCAIVILENGVLDNRQVSPFETFIVPKGEKAELRATALVMRIGKFFEQWGDKK
MGSDKIHHHHHHMMNATPWLTVSRGTAPLLVSIPHTGIDLAGLEPRLVSPWLGRRDCDWWIDKLYDFANDLGATVVHTAISRTVIDVNRDPTGVSLYPGQTTTTLCPTDTFDGDPLYRMGEEPTPSEIDQRRETYFKPYHAALQAEIDRLRGMHEKIVLYDCHSIRSVLPRLFEGTLPVFNLGTNDGKSTDPVLQDKVAAILAATGETWVVNGRFKGGSITRGFGQPQNGVHALQMELSNRGYMREPSEKGSPENWPVPYDPTYAAPIRATLKTILETAIDWARR
MGSDKIHHHHHHMMPELKSALYAGKVMHQRLKPRRHRLSYRIFFLLLDLDEIDAMSKRLRLLSHNRFNLFGFADADHGDGSGGSLKAYVEDMLKTAGIETDAGPIRLLSMPRMLGYAFNPISIYFCHSRQGDLVAILYEVNNTFGQRHSYLIPVGERHDETVRQHCDKRFYVSPFMAMGLNYRFRIGLPGENVAIHITASDDQGPLMVASFAGKRRALSDASLLRAFISYPLLTLKVTAGIHWEALRLWAKGIRLQERPAPPHNSITHVAMHGRLRRKAEPDVI
MGSDKIHHHHHHMMQALKIDEEIWQMFPEARFEVLVVKGINNQSKADEYYQELLDRAIEKSQKYIANDVFRDNPVVSEWRTAFTKFKKKKGARASIEALLKRVSQGKSLSPINPLVDIYNSISLEYGVPCGGEDLQKMDGTMHLGVAKGGESFRPLGSDEDEPALPGEVIYYDATGAICRCFNWREAQRTMLTEDTTDAVMVIEAINADQAQRAKSAIEKLKELVESKLNATGEHFTLQAQ
